Earlier results, collected in article PMC5146272.

Experiments:
Raver1 (Homo sapiens) = Raver1 (Homo sapiens) (UniProt Q8IY67)
[1] = molecular target: U2AF35 UHM (Homo sapiens) (UniProt Q01081)
U2AF35 UHM (Homo sapiens), sequence (Q01081 43-146, one chain of several): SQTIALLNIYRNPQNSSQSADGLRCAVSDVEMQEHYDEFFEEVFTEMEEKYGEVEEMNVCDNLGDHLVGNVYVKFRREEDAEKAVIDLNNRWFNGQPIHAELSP

Raver1 (Homo sapiens), sequence (Q8IY67 2-606): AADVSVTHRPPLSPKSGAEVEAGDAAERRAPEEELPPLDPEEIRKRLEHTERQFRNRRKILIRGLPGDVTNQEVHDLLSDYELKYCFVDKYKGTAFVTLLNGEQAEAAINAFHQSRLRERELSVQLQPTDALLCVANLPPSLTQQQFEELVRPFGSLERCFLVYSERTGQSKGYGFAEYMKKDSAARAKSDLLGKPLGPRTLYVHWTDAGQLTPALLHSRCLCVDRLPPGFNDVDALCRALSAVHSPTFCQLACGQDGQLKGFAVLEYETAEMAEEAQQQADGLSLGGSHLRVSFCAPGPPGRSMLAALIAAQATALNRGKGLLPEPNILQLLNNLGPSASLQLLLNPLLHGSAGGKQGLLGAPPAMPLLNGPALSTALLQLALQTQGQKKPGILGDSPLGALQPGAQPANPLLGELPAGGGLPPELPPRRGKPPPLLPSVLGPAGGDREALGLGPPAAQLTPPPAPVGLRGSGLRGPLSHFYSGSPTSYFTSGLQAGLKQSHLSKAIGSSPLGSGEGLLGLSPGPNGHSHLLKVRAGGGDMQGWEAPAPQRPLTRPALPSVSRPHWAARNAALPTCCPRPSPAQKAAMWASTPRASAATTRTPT
PTB RRM, sequence (P26599 184-260): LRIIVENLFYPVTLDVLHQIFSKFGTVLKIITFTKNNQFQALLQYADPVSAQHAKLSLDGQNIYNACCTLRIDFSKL
U2AF65 PEP, sequence (P26368 85-112, one chain of several): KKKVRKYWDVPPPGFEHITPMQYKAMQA

Kd (Raver1 (Homo sapiens))	Kd [1]	Substance
100 µM		PTB RRM (from UniProt P26599)
	0.002 µM	U2AF65 PEP (from UniProt P26368)
